This test concerns the target CD40 on the surface of mature dendritic cells (mDC) (human, UniProt P25942 21-277). Briefly: cell-based or functional assay.

Chain of CD40 on the surface of mature dendritic cells (mDC) (P25942 21-277): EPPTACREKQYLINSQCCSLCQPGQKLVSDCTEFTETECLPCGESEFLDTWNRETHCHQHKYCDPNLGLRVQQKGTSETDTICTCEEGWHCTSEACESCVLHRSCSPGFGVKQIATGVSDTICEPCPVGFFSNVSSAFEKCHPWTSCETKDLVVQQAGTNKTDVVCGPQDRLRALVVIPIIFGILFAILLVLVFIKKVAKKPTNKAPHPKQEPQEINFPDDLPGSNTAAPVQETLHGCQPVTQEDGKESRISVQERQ

B1: CD40-PD-L1-IgG4 bispecific antibody (bispecific antibody)
light 1: DIQMTQSPSSLSASVGDRVTIKCQASQSISSRLAWYQQKPGKPPKLLIYRASTLASGVPSRFSGSGSGTDFTLTISSLQPEDVATYYCQCTGYGISWPIGGGTKVEIKRTVAAPSVFIFPPSDEQLKSGTASVVCLLNNFYPREAKVQWKVDNALQSGNSQESVTEQDSKDSTYSLSSTLTLSKADYEKHKVYACEVTHQGLSSPVTKSFNRGEC
heavy 1: not shown
light 2: QVQLVQSGAEVKKPGASVKVSCKASGYTFTSYWMHWVRQAPGQGLEWMGRIGPNSGFTSYNEKFKNRVTMTRDTSTSTVYMELSSLRSEDTAVYYCARGGSSYDYFDYWGQGTTVTVSSASVAAPSVFIFPPSDRKLKSGTASVVCLLNNFYPREAKVQWKVDNALQSGNSQESVTEQDSKDSTYSLSSTLTLSKADYEKHKVYACEVTHQGLSSPVTKSFNRGEC
heavy 2: DIVLTQSPASLAVSPGQRATITCRASESVSIHGTHLMHWYQQKPGQPPKLLIYAASNLESGVPARFSGSGSGTDFTLTINPVEAEDTANYYCQQSFEDPLTFGQGTKLEIKASTKGPSVFPLAPCSRSTSESTAALGCLVEDYFPEPVTVSWNSGALTSGVHTFPAVLQSSGLYSLSSVVTVPSSSLGTQTYTCNVDHKPSNTKVDEKVESKYGPPCPPCPAPEFEGGPSVFLFPPKPKDTLMISRTPEVTCVVVDVSQEDPEVQFNWYVDGVEVHNAKTKPREEQFNSTYRVVSVLTVLHQDWLNGKEYKCKVSNKGLPSSIEKTISKAKGQPREPQVCTLPPSQEEMTKNQVSLSCAVKGFYPSDIAVEWESNGQPENNYKTTPPVLDSDGSFFLVSRLTVDKSRWQEGNVFSCSVMHEALHNHYTQKSLSLSLGK
In the case of B1, the “increase rate of CD83 positive ratio over control, bispecific antibody” value is 19%.
